Experimental findings from patent US20220119517A1 (NANJING SANHOME PHARMACEUTICAL, published 2022) are described below.

Read-outs that look alike come from different tables or passages of the source.

The target of experiment [1] is T1, human Claudin18.2 (CLDN18.2), full length, on cells (human).
T1 construct: also called CLDN18.2-FL; HEK293-CLDN18.2 cells
The experiment is described as follows: FACS on NUGC4 cells. The protocol:
(§1) The effect of the Fc-mutated humanized antibody on the binding to the target CLDN18.2 was identified by FACS. NUGC4 cells were digested using the gastric cancer cell digestion solution at 37° C. for 15 minutes; terminated by the complete culture medium, centrifuged at 1000 rpm for 5 minutes, the supernatant was discarded; the cells were resuspended with 2% fetal bovine serum-PBS diluent, the cells were adjusted to 1×10⁶ cells/ml, 100 μl of cell suspension was added to each well of the 96-well U-shaped-bottom plate; the antibody was diluted with 2% fetal bovine serum-PBS to final concentrations of 5 μg/ml, 1 μg/ml, 0.2 μg/ml, 0.04 μg/ml and 0.008 μg/ml, mixed with the cells in equal volume, incubated at 4° C. for 1 hour; centrifuged at 1000 rpm for 5 minutes, the supernatant was discarded; 200 μl of Cell Stain Buffer (Biolegend) was added to each well to wash twice, centrifuged at 1000 rpm for 5 minutes at each time and the supernatant was discarded; 100 μl of PE-anti human Fc antibody (Biolegend) was added, incubated at 4° C. for 1 hour; washed twice using Cell Stain Buffer (Biolegend), centrifuged at 1000 rpm for 5 minutes at each time and the supernatant was discarded. 300 μl of Cell Stain Buffer was added to resuspend the cells, detected with BD FACS Jazz flow analyzer.

For experiment [2], the target named is T1, human Claudin18.2 (CLDN18.2), full …. The experiment is described as follows: cell-based or functional assay.
Experiment [3] has the same target. The experiment is described as follows: cell-based or functional assay. The source holds these as a separate data set.
The target is the same in experiment [4]. The experiment is described as follows: FACS on NUGC4 cells, positive rate. The protocol: as §1
Experiment [5] shares this target. The experiment is described as follows: FACS on NUGC4 cells. The text has this: (§2) Human gastric cancer cells NUGC4 and stably transfected cells CHO-K1-CLDN18.1 (prepared in Example 5) were used respectively, to verify the specificity and affinity of the anti-CLDN18.2 antibodies above at the cellular level by FAGS technology. After antibody affinity maturation and screening in vitro, each antibody can bind to the CLDN18.2 target on NUGC4 cells, but not to CHO-K1-CLDN18.1 cells, as compared with the original 3CHI antibody.
This is another data set of the same source.

Experiment [6] has the same target. The experiment is described as follows: cell-based or functional assay. This is another data set of the same source.
Experiment [7] shares this target. The experiment is described as follows: cell-based or functional assay. The source holds these as a separate data set.
Experiment [8] deals with T2, human Claudin18.1 (CLDN18.1), full length, on cells (human, UniProt P56856 1-261).
T2 construct: HEK293-CLDN18.1 cells carry a fusion with green fluorescent protein (ZsGreen); CHO-K1-CLDN18.1 cells carry pcDNA3.1-CLDN18.1; The cell line is named under assay; also called CLDN18.1-FL; HEK293-CLDN18.1 cells
The experiment is described as follows: FACS on CHO-K1-CLDN18.1 cells.
Text: as §2

The target of experiment [9] is T1, human Claudin18.2 (CLDN18.2), full …. Put plainly: FACS on CHO-K1-CLDN18.2 cells, Graphpad fit. The protocol: (§3) CHO-K1-CLDN18.2 cells and CHO-K1-CLDN18.1 cells (prepared in Example 5) were digested with gastric cancer cell digestion solution at 37° C. for 15 minutes, respectively; terminated with complete culture medium, centrifuged at 1000 rpm for 5 minutes, the supernatant was discarded; the cells were resuspended with 2% fetal bovine serum-PBS diluent, the cells were adjusted to 1×10⁶ cells/ml, 100 μl of cell suspension was added to each well of the 96-well U-shaped-bottom plate; 2% fetal bovine serum-PBS was used to dilute the humanized antibody and the control antibody to final concentrations of 10 μg/ml, 2 μg/ml, 0.4 μg/ml, 0.08 μg/ml and 0.016 μg/ml, respectively, mixed well with the cells in equal volume, incubated at 4° C. for 1 hour; centrifuged at 1000 rpm for 5 minutes, the supernatant was discarded; 200 μl Cell Stain Buffer (Biolegend) was added to each well to wash twice, centrifuged at 1000 rpm for 5 minutes at each time and the supernatant was discarded; 100 μl of PE-anti human Fc antibody (Biolegend) was added, incubated at 4° C. for 1 hour; washed with Cell Stain Buffer (Biolegend) twice, centrifuged at 1000 rpm for 5 minutes at each time and the supernatant was discarded. 300 μl Cell Stain Buffer was added to resuspend the cells, and detected by BD FACS Jazz flow cytometry analyzer. […]

Experiment [10] has the same target. Put plainly: cellular ELISA on fixed HEK293-CLDN18.2 cells. The protocol:
HEK293-CLDN18.1 and HEK293-CLDN18.2 cells were resuscitated two weeks in advance, cultured with DMEM complete culture medium containing 10% fetal bovine serum at 37° C., 5% CO₂. When the cells grew to 80%-90% confluency, they were digested with 0.5 mM EDTA-PBS (Sigma) at room temperature, centrifuged at 1000 rpm for 5 minutes, the supernatant was discarded. Cells were resuspended in DMEM complete culture medium, the cell concentration was adjusted to 6×10⁵ cells/ml. Cells were plated on 96-well cell plates (Corning) pre-coated with polylysine at 2.5 μg/well, 100 μl per well, incubated at 37° C., 5% CO₂ for 24 hours, making cells evenly and completely plated on the bottom of the well. The supernatant was aspirated, and the cells were fixed with 4% paraformaldehyde at room temperature for 20 minutes, washed 3 times with 200 μl PBS, 2 minutes at each time. The well plates were blocked with 200 μl of 3% BSA-PBS at 37° C. for 1 hour. Each chimeric antibody was diluted with 3% BSA-PBS to a concentration of 6 μg/ml, and diluted in a 6-fold gradient to a total of 7 concentrations. At the same time, IMAB362-similar-hG1 diluted in the same concentration gradient as the positive control, and human IgG1, kappa isotype control antibody (hereinafter referred to as Isotype, provided by CrownBio (Taicang) Co., Ltd.) as the negative control were added to HEK293-CLDN18.2 and HEK293-CLDN18.1 cell plates, respectively. The cells were incubated at 37° C. for 1 hour, washed 5 times with PBS. Incubation with HRP-anti human IgG (Jackson) diluted 1:10000 in blocking solution was performed at 37° C. for 1 hour followed by washing 5 times with PBS. 100 μl of TMB one-component color developing solution was added, protected from light at room temperature for 5-10 minutes, terminated with 50 μl of 2M sulfuric acid, OD450 was read on the microplate reader. Data processing: the original data was put into GraphPad 5.0 software for plotting and calculation.
Background: ELISA stands for enzyme-linked immunosorbent assay.

Experiment [11] shares this target. Put plainly: FACS on CHO-K1-CLDN18.2 cells, relative Kd from Graphpad fit. The protocol: as §3
The target of experiment [12] is T2, human Claudin18.1 (CLDN18.1), full …. The experiment is described as follows: FACS on CHO-K1-CLDN18.1 cells, PE-anti human Fc, MFI. The protocol: CHO-K1-CLDN18.2 cells and CHO-K1-CLDN18.1 cells (prepared in Example 5) were digested with gastric cancer cell digestion solution at 37° C. for 15 minutes, respectively; terminated with complete culture medium, centrifuged at 1000 rpm for 5 minutes, the supernatant was discarded; the cells were resuspended with 2% fetal bovine serum-PBS diluent, the cells were adjusted to 1×10⁶ cells/ml, 100 μl of cell suspension was added to each well of the 96-well U-shaped-bottom plate; 2% fetal bovine serum-PBS was used to dilute the humanized antibody and the control antibody to final concentrations of 10 μg/ml, 2 μg/ml, 0.4 μg/ml, 0.08 μg/ml and 0.016 μg/ml, respectively, mixed well with the cells in equal volume, incubated at 4° C. for 1 hour; centrifuged at 1000 rpm for 5 minutes, the supernatant was discarded; 200 μl Cell Stain Buffer (Biolegend) was added to each well to wash twice, centrifuged at 1000 rpm for 5 minutes at each time and the supernatant was discarded; 100 μl of PE-anti human Fc antibody (Biolegend) was added, incubated at 4° C. for 1 hour; washed with Cell Stain Buffer (Biolegend) twice, centrifuged at 1000 rpm for 5 minutes at each time and the supernatant was discarded. 300 μl Cell Stain Buffer was added to resuspend the cells, and detected by BD FACS Jazz flow cytometry analyzer.

Experiment [13] deals with T3, antigen protein Claudin18.2-His (human, UniProt P56856-2 1-261, limits assumed).
T3 construct: also called CLDN18.2 protein
The experiment is described as follows: BLI (Fortebio Octet RED96), antibody on AHC sensor, Claudin18.2-His in solution, 37 °C. The protocol: Next, antibodies were immobilized by the AHC sensor, and then combined with different concentrations of antigens, and determination of the affinity was performed according to the manual of Octet RED96.
A general note: BLI is a label-free optical method that tracks binding on a fibre tip over time.

Experiment [14] has as its target T3, antigen protein Claudin18.2-His. The experiment is described as follows: BLI (Fortebio Octet RED96), antibody on AHC sensor, CLDN18.2 protein in solution, 37 °C. The protocol:
Another method is to verify the affinity of the humanized antibody above at the protein level. The antibody was immobilized by the AHC sensor, and combined with different concentrations of antigens, and affinity determination was performed according to the manual of Octet RED96.

B1: Hu330-1-5M (antibody, human IgG1, kappa)
heavy: EVQLVESGGGLVQPGGSLRLSCAASGFGFSDYGMAWVRQAPGKGLEWVSFISNSAYSIYYADTVTGRFTISRDNAKNSLYLQMNSLRAEDTAVYYCARLGRGNSFAYWGQGTLVTVSSASTKGPSVFPLAPSSKSTSGGTAALGCLVKDYFPEPVTVSWNSGALTSGVHTFPAVLQSSGLYSLSSVVTVPSSSLGTQTYICNVNHKPSNTKVDKKVEPKSCDKTHTCPPCPAPELLGGPSVFLLPPKPKDTLMISRTPEVTCVVVDVSHEDPEVKFNWYVDGVEVHNAKTKPPEEQYNSTLRVVSILTVLHQDWLNGKEYKCKVSNKALPAPIEKTISKAKGQPREPQVYTLPPSRDELTKNQVSLTCLVKGFYPSDIAVEWESNGQPENNYKTTPLVLDSDGSFFLYSKLTVDKSRWQQGNVFSCSVMHEALHNHYTQKSLSLSPGK
light: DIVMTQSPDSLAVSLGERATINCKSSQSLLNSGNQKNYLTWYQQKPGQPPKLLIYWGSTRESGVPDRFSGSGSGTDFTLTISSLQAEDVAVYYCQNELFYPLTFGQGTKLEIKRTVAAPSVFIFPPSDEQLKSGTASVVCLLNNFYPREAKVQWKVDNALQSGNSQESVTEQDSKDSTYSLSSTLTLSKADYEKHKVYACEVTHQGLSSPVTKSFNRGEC
notes: also called Fc mutant of the humanized antibody; Fc-mutated humanized antibody
Take B1: in [1], the “fold increase of binding activity over IMAB362-similar-hG1” value amounted to 15 fold. In experiment [2], the “ADCC activity by luciferase labeling, EC50” value is 0.17 nM and the “ADCC activity by luciferase labeling, Top” value is 100000. For the same molecule, the “ADCC cytotoxicity by LDH method, PBMC effectors, EC50” value in experiment [3] worked out at 0.31 nM. Besides, in experiment [4], the EC50 was found to be 0.76 nM and the “Top (%)” value came out at 92.4%.

B2: IMAB362-similar-hG1 (antibody, human IgG1, kappa)
heavy: not shown
light: DIVMTQSPSSLTVTAGEKVTMSCKSSQSLLNSGNQKNYLTWYQQKPGQPPKLLIYWASTRESGVPDRFTGSGSGTDFTLTISSVQAEDLAVYYCQNDYSYPFTFGSGTKLEIKRTVAAPSVFIFPPSDEQLKSGTASVVCLLNNFYPREAKVQWKVDNALQSGNSQESVTEQDSKDSTYSLSSTLTLSKADYEKHKVYACEVTHQGLSSPVTKSFNRGEC
notes: Human IgG1/kappa format; also called positive control antibody; positive antibody
Take B2: the “MFI (CLDN18.2)” value in [5] is 2180 MFI. Besides, in [6], the “in-vitro ADCC activity, Jurkat-CD16A/NF luciferase reporter, EC50” value is 0.72 nM and the “in-vitro ADCC activity, Jurkat-CD16A/NF luciferase reporter, Top” value was 216000. Moreover, in experiment [7], the “ADCC activity by luciferase labeling, EC50” value worked out at 0.69 nM and the “ADCC activity by luciferase labeling, Top” value is 63600. In addition, in [2], the “ADCC activity by luciferase labeling, EC50” value worked out at 1.49 nM and the “ADCC activity by luciferase labeling, Top” value was 89600. Moreover, the “ADCC cytotoxicity by LDH method, PBMC effectors, EC50” value in experiment [3] was determined as 2.47 nM. Besides, in [8], the “MFI (CLDN18.1)” value came to 59 MFI. In addition, in experiment [4], the concentration for a half-maximal effect (EC50) came to 9.78 nM and the “Top (%)” value is 58.8%. Besides, in experiment [9], the “Bmax (MFI)” value stood at 8220 MFI. For the same molecule, the response in [10] was half-maximal at 0.09 nM (EC50). In [11], this molecule showed a Kd of 28.7 nM. The binding result in experiment [12] is given as “no binding”. Moreover, in experiment [13], binding was put at a Kd of 7.14 nM, the koff amounted to 0.000399 s⁻¹ and the kon is 55900 M⁻¹ s⁻¹. In [14], the dissociation constant (Kd) is 9.44 nM, the koff amounted to 0.00222 s⁻¹ and the kon came to 235000 M⁻¹ s⁻¹.

In general, EC50 refers to the concentration at which the effect is half-maximal. A higher EC50 goes with weaker potency. What is called Kd is the free concentration of one partner at which half of the binding sites on the other are occupied at equilibrium, for simple one-to-one binding. Read a low Kd as a tighter complex. What is called koff is the rate constant with which the complex falls apart. Usually kon stands for the second-order rate constant of association.
